Test results taken from the supplement of paper PMC9170038.

System: MS2 coat protein
Assay: apparent KD of MS2 coat protein; designed switch direction (-1 OFF switch, 1 ON switch): -1; higher = weaker reporter binding
In short: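 SNAP-549-labelled MS2 coat protein was titrated, doubling from 0.7 or 1.5 nM to 3 µM, over designed RNA switches transcribed on Illumina chips by stalled E. coli RNA polymerase. Runs were done without input, with 200 uM small-molecule ligand, or with an oligonucleotide input. Apparent KD is the per-design median over clusters of curve-fitted normalised fluorescence.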

[1] = Eterna round: R95, input ligand: microRNA oligo, concentration not stated
[2] = input ligand: microRNA oligo, concentration not stated
[3] = Eterna round: R95, input ligand: FMN 200 uM
[4] = Eterna round: R95, input ligand: none

Sequence | apparent KD of MS2 coat protein (input ligand: FMN 200 uM) [nM] | apparent KD of MS2 coat protein (input ligand: none) [nM] | apparent KD of MS2 coat protein [1] [nM] | apparent KD of MS2 coat protein [2] [nM] | apparent KD of MS2 coat protein [3] [nM] | apparent KD of MS2 coat protein [4] [nM]
UAUUCGCAAGCGAGAUCCCACAUGAGGAUCACCCAUGUGCUCGUCUUAUAAGGUACUGUGACGAUAGUCACGGUACC [Mat - Sensor, turn-off var - Eli Mod - D81] (Eterna round: R97, puzzle: Sensor, turn-off variant 1) | 16.7 | 16.3 |  |  |  | 
GGGCUGUCAGGAUAUACAUGAGGAUCACCCAUGUCGAGCUGUGAUAGGGCAAGAGUAGGUAGAAGGGACGAGAG [JR_Exclu3_Sub042] (puzzle: Exclusion 3) |  |  | 30.5 |  |  | 
UUUUAAUAUGAAGGAUAUACUUAACAUGAGGAUCACCCAUGUGGUGUUGUGAGUGAGUGAGUUUAGUAGAAGGUCAAUUAUUUU [JMF's solution 25] (Eterna round: R96, puzzle: Exclusion NG 2) | 1020 | 405 |  | 249 |  | 
GUAUAACAUGUAGGAUAUGCGUGGCGAAGCUAUGCAGAAGGACAUGAGGAUCACCCAUGUUAUAGCGUCUGCGUACAGAUGCUA [Mat - Exclusion NG 1 - Mod of JL - D93] (Eterna round: R96, puzzle: Exclusion NG 1) | 204 | 24.5 |  | 26.2 |  | 
AAGAAACAUGAGGAUCACCCAUGUGAGGAUAUGAUGCGAAUUAUGUAUGUAGUAAGCAUCAGAAGGCACAAAGG [Mat - Mod Mix D39] (puzzle: Exclusion 1) |  |  | 142 |  |  | 
GCUAGGAAUGUCAGGAUAUGCUGAUCCUUGGAUCAGCAGAAGGGACAUGAGGAUCACCCAUGUGCUAACCUAGC [Mat - Exclusion 4 - JL Mod - D6] (Eterna round: R97, puzzle: Brourd's mod of Exclusion 4) | 177 | 30.8 |  |  |  | 
AUUGUUUGAUACCUCUAAUACAUGAGGAUCACCCAUGUUAUCGAGGAUAUGUAGAAGAGAGGAGAACAGAAGGCGAAGUAAGAG [JR_ExcNG3_Sub095] (Eterna round: R96, puzzle: Exclusion NG 3) | 14.6 | 17.7 |  | 14.5 |  | 
UUAGAAAGGUUAGGAUAUUAAUUAUUGUAUAGUAUGAUCUACAUGAGGAUCACCCAUGUUAAAUAUAAGAAGGAACGUUAGAUU [JR_ExcNG2_Sub093] (Eterna round: R96, puzzle: Exclusion NG 2) |  |  |  | 39.9 |  | 
AGAAGUAGUAACCGAUCCUACAUGAGGAUCACCCAUGUAGCUAGACGUGCACGCGAUGCUCGUCAGACUACCAGAUG [salish99_TOv1_r3_027] (puzzle: Sensor v3, turn-off variant 1) |  |  | 136 |  | 171 | 171
AAGGGCUGAGGAUAUGCGCGGGCAAGAUCCUCAAUCCCAAAACAUGAGGAUCACCCAUGUAGAAGGCAGAAAUA [Atedonesle] (puzzle: Exclusion 2) |  |  | 28.3 |  |  | 
CCCUCACAUGAGGAUCACCCAUGUCAGGAUAUGCGCGGCCAAAAGGGCUGCUAAGGCAGCAGAAGGGACGUGAA [Eninored] (puzzle: Exclusion 1) |  |  | 14.4 |  |  | 
CGGGCCGGCCUUCCGGCCGGCCCGACAUGAGGAUCACCCAUGUAGGAUAUCCCGGCUGCCGGCCGGGAGAAGGGCGUGCGUCCG [-50.4, -49.4 kcal, 14% A] (Eterna round: R96, puzzle: Exclusion NG 3) | 151 | 137 |  | 87.8 |  | 
CAAAAUGCUCGAGGAUAUCCGAGGAGCAGAAAAGGAGAAGGCGAGGAUAAAGAACAUGAGGAUCACCCAUGUGAACCUCGUAAU [Lereores] (Eterna round: R96, puzzle: Exclusion NG 1) | 16.9 | 16.1 |  | 14.6 |  | 
CCCGUGUGAGGAUAUCGUUCACUUGGCGAAAGUCGAGUGGACGAGAAGGUACAUGAGGAUCACCCAUGUGCGGG [-36.1, -35.4 kcal, A 24%] (Eterna round: R97, puzzle: Exclusion 4) | 155 | 134 |  |  |  | 
AUAUAGUGAGGAUAUACAUGAGGAUCACCCAUGUGGUAGUAGAUACAGUAGAGAUAGAGUAGAAGGCACGAUGA [EX3 #26] (Eterna round: R97, puzzle: Exclusion 3) | 197 | 68 |  |  |  | 
CCGAUAAUGUAGGAUAUCGUAUCGGAGACGAUACGAGAAGGACAAACAUGAGGAUCACCCAUGUUCCUUAACGG [Mat - Exclusion 6 - Eli Mod - D74] (puzzle: Exclusion 6) |  |  | 13.5 |  |  | 
GAUCAACAUGAGGAUCACCCAUGUGAGGAUAUGAUACUAUGUACUUCGGUACAUAGUAUCAGAAGGCAUAUUGA [Ex1-3: 41] (puzzle: Exclusion 1) |  |  | 50.7 |  |  | 

Sequence | apparent KD of MS2 coat protein (input ligand: FMN 200 uM) [nM] | apparent KD of MS2 coat protein (input ligand: none) [nM] | apparent KD of MS2 coat protein [1] [nM] | apparent KD of MS2 coat protein [2] [nM] | apparent KD of MS2 coat protein [3] [nM] | apparent KD of MS2 coat protein [4] [nM]
ACGCAUUGCCAAAGGUAGUGCGUAACAUGAGGAUCACCCAUGUAGGAUAUGGUAGGCUUUGCUUACCAGAAGGACAUAAUAAUU [Mat - Exclusion NG 3 - Mod of JL - D4] (Eterna round: R96, puzzle: Exclusion NG 3) | 43.6 | 27.8 |  | 22.7 |  | 
AACAGUAGAGGAUAUACACGAACAAACAUGAGGAUCACCCAUGUGAAACCGUGCUGUCCGGUAGAAGGCUACUAUA [Zavetiaton] (Eterna round: R97, puzzle: Exclusion 5) | 40.6 | 17.4 |  |  |  | 
GGAUCGAAAGUGAGGAUAUACCUAUGGAUACAUAGGUAGAAGGCACAUGAGGAUCACCCAUGUUCCUACGGUCC [Eli bmx4 4.10] (Eterna round: R97, puzzle: Brourd's mod of Exclusion 4) | 114 | 18.4 |  |  |  | 
GGAUCGAGUGUGAGGAUAUGCUGGUCCUUGGAUCAGCAGAAGGCACAUGAGGAUCACCCAUGUGAAGACGAUCC [Eli bmx4 4.55] (Eterna round: R97, puzzle: Brourd's mod of Exclusion 4) | 340 | 40.1 |  |  |  | 
GACAGCAUGCAGGAUAUACCUCCUCUGCGGACGGUAGAAGGGCGUACAUGAGGAUCACCCAUGUCACCCAUUUC [Eternabot (L2) Solution 61] (Eterna round: R97, puzzle: Exclusion 6) | 13.9 | 14.4 |  |  |  | 
CCUUAACAUGAGGAUCACCCAUGUGAGGAUAUGAUGCAGCAGUGGUCUACGCUGUGCAUCAGAAGGUACAUGGU (Eterna round: R96, puzzle: Exclusion 1) | 291 | 44.5 |  | 35.9 |  | 
GGUCCUGAUGAUUUCCUAGACAUGAGGAUCACCCAUGUUUAUUUAUUUUGUUUUUAGCUUUUUGGUCGUCAAUAAUA [Mod-Hoo-honey-4] (Eterna round: R97, puzzle: Sensor, turn-off variant 1) | 100 | 99.6 |  |  |  | 
GGCAGACAUGAGGAUCACCCAUGUCAGGAUAUGUGGCGAUCGUCGAAAGACGAUAGCCACAGAAGGGACAUGCC [Eli x1 4.20] (Eterna round: R97, puzzle: Exclusion 1) | 40.7 | 22.4 |  |  |  | 
AGUAGAUCUACGCUUGCGUGGAUCUGCAAUGCAGGUGUUACAUGAGGAUCACCCAUGUCCUCAUUUGUUCGUCUUAG [JL turnoff v2 99.09] (puzzle: Sensor v3, turn-off variant 2) |  |  | 322 |  | 568 | 395
CUGGUCCGAGGAUAUAUUAAGUGAAACAUGAGGAUCACCCAUGUAAUUUGAUGGAUGUAAAUAGAAGGCGGACUAG [JL-ex5-3.09] (puzzle: Exclusion 5) |  |  | 37.1 |  | 29.4 | 43.8
CCGUUCCGUGUAGGAUAUUGGCCUUCCUCGGGCCGAGAAGGACAUGAGGAUCACCCAUGUAUGCUAUUAUCGCGCGUGGCGCCC [Design 98] (Eterna round: R96, puzzle: Exclusion NG 1) | 129 | 39.8 |  | 32.4 |  | 
UUUAAUUUUUUUUUUUUACAAGCUUUUUGCUCGUCUUAUACAUGAGGAUCACCCAUGUAAAUGGAAGGUAAAUUAUC [JMF 67] (puzzle: Sensor v3, turn-off variant 2) |  |  | 17.3 |  | 15.5 | 13.5
UUUAAUUUUUUUUUUUUACAAGCUUUUUGCUCGUCUUAUACAUGAGGAUCACCCAUGUAGGUGAGAGAUAAAUUAUC [JMF 15] (puzzle: Sensor v3, turn-off variant 2) |  |  | 128 |  | 19.6 | 24.4
AGCUGUGGCCGAGGAUAUCUAACAGUCCCAACCGAAAUAUAAUCGGACAUGAGGAUCACCCAUGUAGAGAAGGCGGUCUCAGCA [Eli eng2 - 072] (Eterna round: R96, puzzle: Exclusion NG 2) | 324 | 222 |  | 157 |  | 
CCAUUCAGAGGAUAUGCGCAUAAAUAAAACUUUUUUUUUUAACAUGAGGAUCACCCAUGUAGAAGGCUGUAACC [Ex2 #45] (Eterna round: R97, puzzle: Exclusion 2) | 27.2 | 26.7 |  |  |  | 
UCAUACGAUGAGGAUAUCUCAGUUAAAGUAUUUAGAGAAGGCGUUACAUGAGGAUCACCCAUGUUUGUGGGCAG [Ex-6 Malc#8] (puzzle: Exclusion 6) |  |  | 93.9 |  | 99.1 | 136
GUAAAAAAAAAGGAUAUCGAACUUAUUAUUUAACGAGAAGGAUGAACAUGAGGAUCACCCAUGUGGUAUCAUGG [test] (puzzle: Exclusion 6) |  |  | 143 |  | 92.3 | 213
